Ends that are not written are not given here. * marks the point of attachment. Biotin = O=C1N[C@H]2[C@H](CS[C@H]2CCCCC(=O)*)N1

To fix the notation:
B1: PAG C-terminal peptide AA58L, biotinylated (peptide)
peptide: Biotin-KENDYESISDLQQGRDITRL
notes: also called Phosphoprotein Associated with GEMs

T14 sequence (Q13009 other isoform, or with tags, fused parts or gaps): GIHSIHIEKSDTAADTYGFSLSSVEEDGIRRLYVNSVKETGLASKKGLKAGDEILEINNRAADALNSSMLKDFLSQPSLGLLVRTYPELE
T9 sequence (Q2T9M1 other isoform, or with tags, fused parts or gaps limits assumed): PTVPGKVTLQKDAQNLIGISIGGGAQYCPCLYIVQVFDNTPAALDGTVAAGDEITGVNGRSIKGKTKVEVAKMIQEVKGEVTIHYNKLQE

The target of one assay is T1, TAX-IP2L PDZ-GST fusion protein (Homo sapiens (Human), UniProt Q8TF64 107-197).
T1 construct: Order of GST and PDZ part and limits not seen in the excerpts
T1 sequence: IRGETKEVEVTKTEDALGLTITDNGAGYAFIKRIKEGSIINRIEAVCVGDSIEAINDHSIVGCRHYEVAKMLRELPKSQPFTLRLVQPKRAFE
The assay can be described thus: A/G assays.
For the molecule Biotin-AWDDSARAAGGQGLHVTAL [LPAP C-terminal peptide AA30L, biotinylated], the binding result is “no binding”.

In the case of Biotin-QGDPALQDAGDSSRKEYFI (also called GC) [Glycophorin C C-terminal peptide AA37L, biotinylated], the binding result is “no binding”.

For B1, the binding result was “no binding”.

A further assay addresses T2, GEF PDZ-GST fusion protein (Homo sapiens (Human), UniProt Q8TEU7 293-400).
T2 construct: The label GEF is not explained in the excerpts
T2 sequence: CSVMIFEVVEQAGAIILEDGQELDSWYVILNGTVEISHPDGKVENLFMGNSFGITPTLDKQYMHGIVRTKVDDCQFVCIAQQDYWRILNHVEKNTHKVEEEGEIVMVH
The assay can be described thus: A/G assays.
Regarding Biotin-AWDDSARAAGGQGLHVTAL [LPAP C-terminal peptide AA30L, biotinylated], the binding result is on record as “no binding”.

On to Biotin-QGDPALQDAGDSSRKEYFI (also called GC) [Glycophorin C C-terminal peptide AA37L, biotinylated], for which the binding result is on record as “no binding”.

In the case of B1, the binding result is “no binding”.

The target in a further assay is T3, ConEn PDZ-GST fusion protein (Homo sapiens (Human), UniProt Q969H4 193-287).
T3 construct: The label ConEn is not explained in the excerpts
T3 sequence: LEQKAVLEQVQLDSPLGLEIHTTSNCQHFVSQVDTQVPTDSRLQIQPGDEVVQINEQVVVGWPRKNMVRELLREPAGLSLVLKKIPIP
In words: A/G assays.
As to Biotin-AWDDSARAAGGQGLHVTAL [LPAP C-terminal peptide AA30L, biotinylated], the binding result is reported as “no binding”.

In the case of Biotin-QGDPALQDAGDSSRKEYFI (also called GC) [Glycophorin C C-terminal peptide AA37L, biotinylated], the binding result is listed as “no binding”.

For the molecule B1, the binding result is “no binding”.

A further assay addresses T4, GST-prIL16 fusion protein (PDZ domains 1-2) (Homo sapiens (Human), UniProt Q14005 1111-1324).
T4 construct: also called putative interleukin 16 precursor; not shown: glutathione S-transferase encoded by vector pGEX-3X (Pharmacia)
T4 sequence: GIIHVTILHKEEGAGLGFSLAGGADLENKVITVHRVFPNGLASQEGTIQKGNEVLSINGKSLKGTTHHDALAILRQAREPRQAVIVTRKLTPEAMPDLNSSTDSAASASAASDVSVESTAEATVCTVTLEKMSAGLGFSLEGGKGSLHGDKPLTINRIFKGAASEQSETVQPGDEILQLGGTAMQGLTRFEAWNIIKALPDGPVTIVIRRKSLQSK
The assay can be described thus: A/G assays.
Consider Biotin-AWDDSARAAGGQGLHVTAL [LPAP C-terminal peptide AA30L, biotinylated], for which the binding result is reported as “no binding”.

With Biotin-QGDPALQDAGDSSRKEYFI (also called GC) [Glycophorin C C-terminal peptide AA37L, biotinylated], the binding result is given as “no binding”.

As for B1, the binding result is reported as “no binding”.

For a further assay, the target named is T5, TAX-IP33 PDZ-GST fusion protein (Homo sapiens (Human), UniProt O14910 103-193).
T5 construct: Order of GST and PDZ part and limits not seen in the excerpts
T5 sequence: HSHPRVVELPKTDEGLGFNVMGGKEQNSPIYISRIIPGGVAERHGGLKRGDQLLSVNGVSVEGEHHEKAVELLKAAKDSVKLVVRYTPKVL
The assay can be described thus: A/G assays.
For Biotin-AWDDSARAAGGQGLHVTAL [LPAP C-terminal peptide AA30L, biotinylated], the binding result is on record as “no binding”.

With Biotin-QGDPALQDAGDSSRKEYFI (also called GC) [Glycophorin C C-terminal peptide AA37L, biotinylated], the binding result was “no binding”.

For B1, the binding result was “no binding”.

The next assay has as its target T6, GST-KIAA0303 PDZ domain fusion protein (Homo sapiens (Human), UniProt O15021 1138-1228).
T6 construct: also called K303; not shown: glutathione S-transferase encoded by vector pGEX-3X (Pharmacia)
T6 sequence: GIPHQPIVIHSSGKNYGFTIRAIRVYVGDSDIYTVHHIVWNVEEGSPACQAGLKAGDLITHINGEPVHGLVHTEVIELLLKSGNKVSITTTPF
The assay can be described thus: A/G assays.
On to Biotin-AWDDSARAAGGQGLHVTAL [LPAP C-terminal peptide AA30L, biotinylated], for which the binding result is on record as “no binding”.

In the case of Biotin-QGDPALQDAGDSSRKEYFI (also called GC) [Glycophorin C C-terminal peptide AA37L, biotinylated], the binding result is reported as “no binding”.

As for B1, the binding result is “no binding”.

The next assay has as its target T7, GST-TAX-IP2 PDZ domain fusion protein (human, UniProt O14908 129-216).
T7 construct: also called TAX-1P2; TAX2; not shown: glutathione S-transferase encoded by vector pGEX-3X (Pharmacia)
T7 chain: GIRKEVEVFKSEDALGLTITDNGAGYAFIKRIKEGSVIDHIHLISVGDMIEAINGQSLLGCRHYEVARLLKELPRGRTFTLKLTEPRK
The assay can be described thus: A/G assays.
As for Biotin-AWDDSARAAGGQGLHVTAL [LPAP C-terminal peptide AA30L, biotinylated], the binding result is “no binding”.

As to Biotin-QGDPALQDAGDSSRKEYFI (also called GC) [Glycophorin C C-terminal peptide AA37L, biotinylated], the binding result is on record as “no binding”.

Regarding B1, the binding result was “no binding”.

The target in a further assay is T8, GST-AF6 PDZ domain fusion protein (Homo sapiens (Human), UniProt P55196 1001-1093).
T8 construct: also called af-6 protein; not shown: glutathione S-transferase encoded by vector pGEX-3X (Pharmacia)
T8 sequence: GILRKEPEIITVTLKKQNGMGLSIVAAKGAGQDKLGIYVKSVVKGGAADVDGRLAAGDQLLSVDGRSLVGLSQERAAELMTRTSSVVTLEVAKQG
The assay can be described thus: A/G assays.
Consider Biotin-AWDDSARAAGGQGLHVTAL [LPAP C-terminal peptide AA30L, biotinylated], for which the binding result is “no binding”.

Consider B1, for which the binding result is on record as “no binding”.

The next assay concerns the target T9, PICK1 PDZ-GST fusion protein (Bos taurus (Bovine), UniProt Q2T9M1 17-105).
T9 construct: Order of GST and PDZ part and limits not seen in the excerpts
In words: A/G assays.
Regarding Biotin-AWDDSARAAGGQGLHVTAL [LPAP C-terminal peptide AA30L, biotinylated], the binding result was “no binding”.

Take Biotin-QGDPALQDAGDSSRKEYFI (also called GC) [Glycophorin C C-terminal peptide AA37L, biotinylated]: the binding result is “no binding”.

For the molecule B1, the binding result is “no binding”.

The next assay has as its target T10, K858 PDZ-GST fusion protein (Homo sapiens (Human), UniProt Q8WWI1 1038-1131).
T10 construct: Order of GST and PDZ part and limits not seen in the excerpts
T10 sequence: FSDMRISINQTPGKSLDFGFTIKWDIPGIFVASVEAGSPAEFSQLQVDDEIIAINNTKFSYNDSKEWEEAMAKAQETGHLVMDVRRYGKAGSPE
The assay can be described thus: A/G assays.
For Biotin-AWDDSARAAGGQGLHVTAL [LPAP C-terminal peptide AA30L, biotinylated], the binding result is recorded as “no binding”.

Biotin-QGDPALQDAGDSSRKEYFI (also called GC) [Glycophorin C C-terminal peptide AA37L, biotinylated]: the binding result is recorded as “no binding”.

In the case of B1, the binding result was “no binding”.

Another assay has as its target T11, GST-DLG5 (p-dlg) PDZ domain fusion protein (Human, UniProt Q8TDM6 1343-1583).
T11 construct: also called Human discs large protein p-dlg; not shown: glutathione S-transferase encoded by vector pGEX-3X (Pharmacia)
T11 sequence: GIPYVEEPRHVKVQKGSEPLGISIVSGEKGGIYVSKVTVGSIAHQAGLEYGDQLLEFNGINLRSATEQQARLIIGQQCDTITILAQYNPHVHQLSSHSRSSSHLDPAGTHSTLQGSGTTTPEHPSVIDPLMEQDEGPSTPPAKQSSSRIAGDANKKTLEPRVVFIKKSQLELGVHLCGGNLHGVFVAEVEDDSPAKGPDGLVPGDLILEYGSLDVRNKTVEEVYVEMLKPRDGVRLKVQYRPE
The assay can be described thus: A/G assays.
Take Biotin-AWDDSARAAGGQGLHVTAL [LPAP C-terminal peptide AA30L, biotinylated]: the binding result is “no binding”.

For Biotin-QGDPALQDAGDSSRKEYFI (also called GC) [Glycophorin C C-terminal peptide AA37L, biotinylated], the binding result is “no binding”.

Take B1: the binding result is given as “no binding”.

For another assay, the target named is T12, SP short PDZ-GST fusion protein (Homo sapiens (Human), UniProt O43464 350-435).
T12 construct: The label SP short is not explained in the excerpts
T12 sequence: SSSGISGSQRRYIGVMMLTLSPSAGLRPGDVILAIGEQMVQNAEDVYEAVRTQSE
The assay can be described thus: A/G assays.
As to Biotin-AWDDSARAAGGQGLHVTAL [LPAP C-terminal peptide AA30L, biotinylated], the binding result is given as “no binding”.

For Biotin-QGDPALQDAGDSSRKEYFI (also called GC) [Glycophorin C C-terminal peptide AA37L, biotinylated], the binding result is “no binding”.

Take B1: the binding result is recorded as “no binding”.

In another assay the target is T13, K316 PDZ-GST fusion protein (Homo sapiens (Human), UniProt Q14CM0 72-159).
T13 construct: Order of GST and PDZ part and limits not seen in the excerpts
T13 sequence (Q14CM0 72-159 limits assumed): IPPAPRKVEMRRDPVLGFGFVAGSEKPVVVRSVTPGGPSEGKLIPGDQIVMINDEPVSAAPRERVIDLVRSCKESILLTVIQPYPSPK
The assay can be described thus: A/G assays.
Take Biotin-QGDPALQDAGDSSRKEYFI (also called GC) [Glycophorin C C-terminal peptide AA37L, biotinylated]: the binding result is “no binding”.

Another assay has as its target T14, GST-TIAM1 PDZ domain fusion protein (Homo sapiens (Human), UniProt Q13009 845-931).
T14 construct: also called TLAM1; T-lymphoma invasion and metastasis inducing protein 1; not shown: glutathione S-transferase encoded by vector pGEX-3X (Pharmacia)
In words: A/G assays.
On to Biotin-AWDDSARAAGGQGLHVTAL [LPAP C-terminal peptide AA30L, biotinylated], for which the binding result is listed as “no binding”.

Regarding Biotin-QGDPALQDAGDSSRKEYFI (also called GC) [Glycophorin C C-terminal peptide AA37L, biotinylated], the binding result was “no binding”.

Regarding B1, the binding result is reported as “no binding”.

A further assay has as its target T15, GST-TAX-IP43 PDZ domain fusion protein (human, UniProt Q13884 109-180).
T15 construct: also called TAX43; not shown: glutathione S-transferase encoded by vector pGEX-3X (Pharmacia)
T15 sequence: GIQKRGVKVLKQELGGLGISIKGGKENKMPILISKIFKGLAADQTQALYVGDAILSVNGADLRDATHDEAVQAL
In words: A/G assays.
As for Biotin-AWDDSARAAGGQGLHVTAL [LPAP C-terminal peptide AA30L, biotinylated], the binding result is “no binding”.

Turning to Biotin-QGDPALQDAGDSSRKEYFI (also called GC) [Glycophorin C C-terminal peptide AA37L, biotinylated], the binding result was “no binding”.

Turning to B1, the binding result is “no binding”.

A further assay addresses T16, GST-DVL1 PDZ domain fusion protein (human, UniProt O14640 247-339).
T16 construct: also called human dishevelled segment polarity protein homolog; not shown: glutathione S-transferase encoded by vector pGEX-3X (Pharmacia)
T16 sequence: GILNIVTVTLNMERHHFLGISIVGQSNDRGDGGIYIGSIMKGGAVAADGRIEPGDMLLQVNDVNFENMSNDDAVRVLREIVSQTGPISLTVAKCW
The assay can be described thus: A/G assays.
Turning to Biotin-AWDDSARAAGGQGLHVTAL [LPAP C-terminal peptide AA30L, biotinylated], the binding result is “no binding”.

Turning to Biotin-QGDPALQDAGDSSRKEYFI (also called GC) [Glycophorin C C-terminal peptide AA37L, biotinylated], the binding result is reported as “no binding”.

Regarding B1, the binding result was “no binding”.

The record behind these values is patent publication US20050037969A1 (ARBOR VITA, published 2005).
